Measured values published in IntAct's records for PubMed 28164238.

B1: T-box transcription factor TBX5 (Mus musculus), P70326 (parent)
chain: MADTDEGFGLARTPLEPDSKDRSCDSKPESALGAPSKSPSSPQAAFTQQGMEGIKVFLHERELWLKFHEVGTEMIITKAGRRMFPSYKVKVTGLNPKTKYILLMDIVPADDHRYKFADNKWSVTGKAEPAMPGRLYVHPDSPATGAHWMRQLVSFQKLKLTNNHLDPFGHIILNSMHKYQPRLHIVKADENNGFGSKNTAFCTHVFPETAFIAVTSYQNHKITQLKIENNPFAKGFRGSDDLELHRMSRMQSKEYPVVPRSTVRHKVTSNHSPFSSETRALSTSSNLGSQYQCENGVSGPSQDLLPPPNPYPLAQEHSQIYHCTKRKDEECSSTEHPYKKPYMETSPSEEDTFYRSGYPQQQGLSTSYRTESAQRQACMYASSAPPSEPVPSLEDISCNTWPSMPSYSSCTVTTVQPMDRLPYQHFSAHFTSGPLVPRLAGMANHGSPQLGEGMFQHQTSVAHQPVVRQCGPQTGLQSPGGLQPPEFLYTHGVPRTLSPHQYHSVHGVGMVPEWSENS

Legend:
[1] = variants of: B1; details: with klf13_mouse Klf13, Q9JJZ6
klf13_mouse Klf13, Q9JJZ6, sequence (Q9JJZ6 whole entry): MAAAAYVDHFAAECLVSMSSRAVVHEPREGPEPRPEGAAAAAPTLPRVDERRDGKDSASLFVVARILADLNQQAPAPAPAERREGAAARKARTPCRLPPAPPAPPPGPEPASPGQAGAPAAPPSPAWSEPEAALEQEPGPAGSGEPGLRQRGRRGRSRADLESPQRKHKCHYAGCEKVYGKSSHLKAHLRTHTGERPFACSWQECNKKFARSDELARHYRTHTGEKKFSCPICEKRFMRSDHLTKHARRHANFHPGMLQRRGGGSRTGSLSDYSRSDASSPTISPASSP

[2] = variants of: B1; details: with nkx25_mouse Nkx2-5, P42582
nkx25_mouse Nkx2-5, P42582, sequence (P42582 whole entry): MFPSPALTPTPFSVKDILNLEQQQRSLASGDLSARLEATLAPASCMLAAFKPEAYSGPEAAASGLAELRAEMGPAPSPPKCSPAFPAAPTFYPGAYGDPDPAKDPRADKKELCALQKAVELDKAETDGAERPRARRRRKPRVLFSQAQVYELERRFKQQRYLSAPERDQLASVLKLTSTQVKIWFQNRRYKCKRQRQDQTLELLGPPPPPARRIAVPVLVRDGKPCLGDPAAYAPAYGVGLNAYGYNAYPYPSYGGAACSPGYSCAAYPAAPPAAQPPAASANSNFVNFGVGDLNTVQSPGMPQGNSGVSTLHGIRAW

| effect of a mutation on the interaction [1] | effect of a mutation on the interaction [2] | Variant |
| --- | --- | --- |
| decreasing interaction strength | decreasing interaction strength | MADTDEGFGLARTPLEPDSKDRSCDSKPESALGAPSKSPSSPQAAFTQQGMEGIKVFLHERELWLKFHEVGTEMIITKAGRRMFPSYKVKVTGLNPKTKYILLMDIVPADDHRYKFADNKWSVTGKAEPAMPGRLYVHPDSPATGAHWMRQLVSFQKLKLTNNHLDPFGHIILNSMHKYQPRLHIVKADENNGFGSKNTAFCTHVFPETAFIAVTSYQNHKIMQLKIENNPFAKGFRGSDDLELHRMSRMQSKEYPVVPRSTVRHKVTSNHSPFSSETRALSTSSNLGSQYQCENGVSGPSQDLLPPPNPYPLAQEHSQIYHCTKRKDEECSSTEHPYKKPYMETSPSEEDTFYRSGYPQQQGLSTSYRTESAQRQACMYASSAPPSEPVPSLEDISCNTWPSMPSYSSCTVTTVQPMDRLPYQHFSAHFTSGPLVPRLAGMANHGSPQLGEGMFQHQTSVAHQPVVRQCGPQTGLQSPGGLQPPEFLYTHGVPRTLSPHQYHSVHGVGMVPEWSENS [T223M] |
| decreasing interaction strength | decreasing interaction strength | MADTDEGFGLARTPLEPDSKDRSCDSKPESALGAPSKSPSSPQAAFTQQGMEGIKVFLHERELWLKFHEVGTEMIITKAGRRMFPSYKVKVTGLNPKTKYILLMDIVPADDHRYKFADNKWSVTGKAEPAMPGRLYVHPDSPAIGAHWMRQLVSFQKLKLTNNHLDPFGHIILNSMHKYQPRLHIVKADENNGFGSKNTAFCTHVFPETAFIAVTSYQNHKITQLKIENNPFAKGFRGSDDLELHRMSRMQSKEYPVVPRSTVRHKVTSNHSPFSSETRALSTSSNLGSQYQCENGVSGPSQDLLPPPNPYPLAQEHSQIYHCTKRKDEECSSTEHPYKKPYMETSPSEEDTFYRSGYPQQQGLSTSYRTESAQRQACMYASSAPPSEPVPSLEDISCNTWPSMPSYSSCTVTTVQPMDRLPYQHFSAHFTSGPLVPRLAGMANHGSPQLGEGMFQHQTSVAHQPVVRQCGPQTGLQSPGGLQPPEFLYTHGVPRTLSPHQYHSVHGVGMVPEWSENS [T144I] |

Second part, the variant before the results:

| Variant | effect of a mutation on the interaction [1] | effect of a mutation on the interaction [2] |
| --- | --- | --- |
| MADTDEGFGLARTPLEPDSKDRSCDSKPESALGAPSKSPSSPQAAFTQQGMEGIKVFLHERELWLKFHEVGTEMIITKAGRRMFPSYKVKVTGLNPKTKYILLMDIVPADDHRYKFADNKWSVTGKAEPAMPGRLYVHPDSPATGAHWMRQLVSFQKLKLTNNHLDPFGHIILNSMHKYQPRLHIVKADENNGFGSKNTAFCTHVFPETAFIAVTSYQNHKITQLKIENNPFAKGFQGSDDLELHRMSRMQSKEYPVVPRSTVRHKVTSNHSPFSSETRALSTSSNLGSQYQCENGVSGPSQDLLPPPNPYPLAQEHSQIYHCTKRKDEECSSTEHPYKKPYMETSPSEEDTFYRSGYPQQQGLSTSYRTESAQRQACMYASSAPPSEPVPSLEDISCNTWPSMPSYSSCTVTTVQPMDRLPYQHFSAHFTSGPLVPRLAGMANHGSPQLGEGMFQHQTSVAHQPVVRQCGPQTGLQSPGGLQPPEFLYTHGVPRTLSPHQYHSVHGVGMVPEWSENS [R237Q] | decreasing interaction strength | decreasing interaction strength |
| MADTDEGFGLARTPLEPDSKDRSCDSKPESALGAPSKSPSSPQAAFTQQGMEGIKVFLHERELWLKFHEVGTEMIITKAGRRMFPSYKVKVTGLNLKTKYILLMDIVPADDHRYKFADNKWSVTGKAEPAMPGRLYVHPDSPATGAHWMRQLVSFQKLKLTNNHLDPFGHIILNSMHKYQPRLHIVKADENNGFGSKNTAFCTHVFPETAFIAVTSYQNHKITQLKIENNPFAKGFRGSDDLELHRMSRMQSKEYPVVPRSTVRHKVTSNHSPFSSETRALSTSSNLGSQYQCENGVSGPSQDLLPPPNPYPLAQEHSQIYHCTKRKDEECSSTEHPYKKPYMETSPSEEDTFYRSGYPQQQGLSTSYRTESAQRQACMYASSAPPSEPVPSLEDISCNTWPSMPSYSSCTVTTVQPMDRLPYQHFSAHFTSGPLVPRLAGMANHGSPQLGEGMFQHQTSVAHQPVVRQCGPQTGLQSPGGLQPPEFLYTHGVPRTLSPHQYHSVHGVGMVPEWSENS [P96L] | with no effect | decreasing interaction strength |
